In IntAct's records for PubMed 23871486:

B1: Cytotoxic and regulatory T-cell molecule (Homo sapiens), O95727-1 (parent)
chain: MWWRVLSLLAWFPLQEASLTNHTETITVEEGQTLTLKCVTSLRKNSSLQWLTPSGFTIFLNEYPALKNSKYQLLHHSANQLSITVPNVTLQDEGVYKCLHYSDSVSTKEVKVIVLATPFKPILEASVIRKQNGEEHVVLMCSTMRSKPPPQITWLLGNSMEVSGGTLHEFETDGKKCNTTSTLIIHTYGKNSTVDCIIRHRGLQGRKLVAPFRFEDLVTDEETASDALERNSLSSQDPQQPTSTVSVTEDSSTSEIDKEEKEQTTQDPDLTTEANPQYLGLARKKSGILLLTLVSFLIFILFIIVQLFIMKLRKAHVIWKKENEVSEHTLESYRSRSNNEETSSEEKNGQSSHPMRCMNYITKLYSEAKTKRKENVQHSKLEEKHIQVPESIV
partner: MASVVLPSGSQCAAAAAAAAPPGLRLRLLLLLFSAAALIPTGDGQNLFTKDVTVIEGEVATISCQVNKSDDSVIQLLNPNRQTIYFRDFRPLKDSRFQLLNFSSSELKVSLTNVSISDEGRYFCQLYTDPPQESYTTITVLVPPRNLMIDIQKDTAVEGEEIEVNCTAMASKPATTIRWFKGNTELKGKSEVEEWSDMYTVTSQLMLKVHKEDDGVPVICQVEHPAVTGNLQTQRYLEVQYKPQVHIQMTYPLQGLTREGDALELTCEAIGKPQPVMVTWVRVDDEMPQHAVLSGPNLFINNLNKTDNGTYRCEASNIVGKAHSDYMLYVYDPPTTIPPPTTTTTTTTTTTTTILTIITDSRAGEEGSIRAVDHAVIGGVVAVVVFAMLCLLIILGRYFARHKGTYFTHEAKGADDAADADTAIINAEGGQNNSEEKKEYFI

Variants of: B1
Conditions: with cadm1_human CADM1, Q9BY67
In the case of MWWRVLSLLAWFPLQEASLTNHTETITVEEGQTLTLKCVTSLRKNSSLQWLTPSGFAIFLNEYPALKNSKYQLLHHSANQLSITVPNVTLQDEGVYKCLHYSDSVSTKEVKVIVLATPFKPILEASVIRKQNGEEHVVLMCSTMRSKPPPQITWLLGNSMEVSGGTLHEFETDGKKCNTTSTLIIHTYGKNSTVDCIIRHRGLQGRKLVAPFRFEDLVTDEETASDALERNSLSSQDPQQPTSTVSVTEDSSTSEIDKEEKEQTTQDPDLTTEANPQYLGLARKKSGILLLTLVSFLIFILFIIVQLFIMKLRKAHVIWKKENEVSEHTLESYRSRSNNEETSSEEKNGQSSHPMRCMNYITKLYSEAKTKRKENVQHSKLEEKHIQVPESIV [T57A], the “effect of a mutation on the interaction” value is reported as “decreasing interaction strength”. With MWWRVLSLLAWFPLQEASLTNHTETITVEEGQTLTLKCVTSLRKNSSLQWLTPSGFTIFLNEYPALANSKYQLLHHSANQLSITVPNVTLQDEGVYKCLHYSDSVSTKEVKVIVLATPFKPILEASVIRKQNGEEHVVLMCSTMRSKPPPQITWLLGNSMEVSGGTLHEFETDGKKCNTTSTLIIHTYGKNSTVDCIIRHRGLQGRKLVAPFRFEDLVTDEETASDALERNSLSSQDPQQPTSTVSVTEDSSTSEIDKEEKEQTTQDPDLTTEANPQYLGLARKKSGILLLTLVSFLIFILFIIVQLFIMKLRKAHVIWKKENEVSEHTLESYRSRSNNEETSSEEKNGQSSHPMRCMNYITKLYSEAKTKRKENVQHSKLEEKHIQVPESIV [K67A] the “effect of a mutation on the interaction” value was “decreasing interaction strength”. For MWWRVLSLLAWFPLQEASLTNHTETITVEEGQTLTLKCVTSLRKNSSLQWLTPSGFTIFLNEYPALKNSKYQLLHHSANQLSITVPNVTLQDEGVYKCLHASDSVSTKEVKVIVLATPFKPILEASVIRKQNGEEHVVLMCSTMRSKPPPQITWLLGNSMEVSGGTLHEFETDGKKCNTTSTLIIHTYGKNSTVDCIIRHRGLQGRKLVAPFRFEDLVTDEETASDALERNSLSSQDPQQPTSTVSVTEDSSTSEIDKEEKEQTTQDPDLTTEANPQYLGLARKKSGILLLTLVSFLIFILFIIVQLFIMKLRKAHVIWKKENEVSEHTLESYRSRSNNEETSSEEKNGQSSHPMRCMNYITKLYSEAKTKRKENVQHSKLEEKHIQVPESIV [Y101A], the “effect of a mutation on the interaction” value was “decreasing interaction strength”. With MWWRVLSLLAWFPLQEASLTNHTETITVEEGQTLTLKCVTSLRKNSSLQWLTPSGAAIFLNEYPALANSKYQLLHHSANQLSITVPNVTLQDEGVYKCLHASDSVSTKEVKVIVLATPFKPILEASVIRKQNGEEHVVLMCSTMRSKPPPQITWLLGNSMEVSGGTLHEFETDGKKCNTTSTLIIHTYGKNSTVDCIIRHRGLQGRKLVAPFRFEDLVTDEETASDALERNSLSSQDPQQPTSTVSVTEDSSTSEIDKEEKEQTTQDPDLTTEANPQYLGLARKKSGILLLTLVSFLIFILFIIVQLFIMKLRKAHVIWKKENEVSEHTLESYRSRSNNEETSSEEKNGQSSHPMRCMNYITKLYSEAKTKRKENVQHSKLEEKHIQVPESIV [F56A;T57A;K67A;Y101A] the “effect of a mutation on the interaction” value was “decreasing interaction strength”. With MWWRVLSLLAWFPLQEASLTNHTETITVEEGQTLTLKCVTSLRKNSSLQWLTPSGATIFLNEYPALKNSKYQLLHHSANQLSITVPNVTLQDEGVYKCLHYSDSVSTKEVKVIVLATPFKPILEASVIRKQNGEEHVVLMCSTMRSKPPPQITWLLGNSMEVSGGTLHEFETDGKKCNTTSTLIIHTYGKNSTVDCIIRHRGLQGRKLVAPFRFEDLVTDEETASDALERNSLSSQDPQQPTSTVSVTEDSSTSEIDKEEKEQTTQDPDLTTEANPQYLGLARKKSGILLLTLVSFLIFILFIIVQLFIMKLRKAHVIWKKENEVSEHTLESYRSRSNNEETSSEEKNGQSSHPMRCMNYITKLYSEAKTKRKENVQHSKLEEKHIQVPESIV [F56A] the “effect of a mutation on the interaction” value was “decreasing interaction strength”.
